Assay results from patent US8058507B2, “HOPM1 mediated disease resistance to Pseudomonas syringae in Arabidopsis” (priority 2007, dated 2011).

Key:
AtMIN10-HA = assay: Immunoblot of AtMIN10-HA in transgenic plants infiltrated with ΔCEL mutant bacteria (pORF43); type: in vivo, Arabidopsis; details: HopM1 delivered by 1×10^8 CFU/ml ΔCEL mutant bacteria (pORF43)
Description: (§1) In brief: leaf disc fractions were homogenized in 1×SDS-polyacrylamide gel electrophoresis (PAGE) sample buffer, boiled for 5 min, and centrifuged for 2 minutes. Proteins in the supernatant were separated on SDS-PAGE gels and transferred to Immobilon-P membrane for immunoblotting procedures (Millipore Corp., Bedford, Mass.).
Furthermore AtMIN10-HA stably expressed in transgenic plants was also destabilized by HopM1. Leaves of AtMIN10-HA transgenic plants were infiltrated with water or 1×10^8 CFU/ml ΔCEL mutant bacteria or ΔCEL mutant bacteria (pORF43). AtMIN10-HA was detected using the HA epitope antibody.

AtMIN7 [1] = assay: Detection of polyubiquitinated AtMIN7 in planta; type: cell-based, Arabidopsis thaliana; details: MG132-treated N. benthamiana leaves
Excerpt: Left: AtMIN7:HA and 6×His:HopM1-300, 6×His:HopM301-712 or 6×His:HopM1-712 were transiently co-expressed in MG132-treated N. benthamiana leaves. Ubiquitinated proteins were detected by western blot (WB) with a polyclonal ubiquitin (Ub) antibody (Sigma Co.). Right: AtMIN7:HA and 6×His:HopM1-712 were transiently co-expressed in 1% DMSO (−)- or MG132-treated N. benthamiana leaves. AtMIN7 was immunoprecipitated (IP) using a polyclonal AtMIN7 antibody. Ubiquitinated AtMIN7 protein was detected by western blot (WB) with a polyclonal ubiquitin (Ub) antibody (Sigma Co.). See Materials and Methods for transient expression and immunoprecipitation of AtMIN7 and HopM1 in N. benthamiana leaves.

AtMIN7 [2] = assay: Immunoblot of endogenous AtMIN7 in Arabidopsis leaves infiltrated with ΔCEL mutant bacteria (pORF43); type: in vivo; details: HopM1 delivered by 1×10^8 CFU/ml ΔCEL mutant bacteria (pORF43)
Description: as §1
AtMIN7 is a low-abundance protein in Arabidopsis plants, however it is detected with a rabbit polyclonal antibody, described herein. […] AtMIN7 was absent on the immunoblots of leaves infiltrated with ΔCEL mutant bacteria (pORF43) but not the leaves infiltrated with water or ΔCEL mutant bacteria (FIG. 2C).

[3] = system: AtMIN2, AtMIN7, and AtMIN 10; assay: Immunoblot of AtMIN-HA proteins transiently co-expressed with HopM1 in N. benthamiana leaves; type: cell-based, Arabidopsis thaliana; details: DEX-induced expression in N. benthamiana leaves
Description: Oligonucleotide primers used for amplifying hopMl and AtMIN genes from Pst DC3000 genomic DNA or Arabidopsis total cDNA, as applicable, used for creating these expression vectors are shown in FIG. 14. Two days after leaf infiltration, 0.3 μM DEX was applied to induce the expression of HopM11-712, or HopM11-300 or HopM11-712. Three hours after DEX treatment, leaf discs were taken for subsequent analyses using immunoblotting or co-immunoprecipitation experiments (see, EXAMPLES herein for procedures).
Plant cells expressing 6×His-HopM1 and AtMIN-HA proteins in N. benthamiana leaves were engineered to co-express a second transiently expressed protein, either full-length 6×His-HopM1 or 6×His-HopM11-300. […] Specifically, AtMIN7-HA was pulled down with HopM11-300, but not with 6×His-HopM1301-712. Please note that membrane associated AtMIN 10-HA was preferably eliminated during bacterial infection. Arrows indicate lanes in which DEX-induced expression of full-length HopM1 destabilized AtMIN2, AtMIN7, and AtMIN 10 (FIG. 6B).
Expression Plasmids for Nicotiana cells: For transient expression studies in Nicotiana benthamiana; expression plasmids were engineered to express C-terminal HA epitope-tagged AtMIN proteins using a constitutive CaMV 35S promoter operably linked to AtMIN sequences. […]

Pst DC3000 = assay: Bacterial multiplication and disease symptoms in HopM1 transgenic Arabidopsis plants; type: in vivo, Pseudomonas syringae; details: full-length HopM1 expressed in transgenic Arabidopsis
Description: Following inoculation, infected plants were monitored daily over a 3- to 4-day period for symptom development and bacterial multiplication. For experiments described in FIGS. 1 and 5, plants were sprayed with 30 μM dexamethasone (DEX) 24 h before bacterial inoculation (1×10^6 cfu/ml).
Leaves were harvested and surface sterilized as follows: 1) whole leaves were removed from a host plant and gently mixed in a 70% ethanol solution for 1 minute. Leaves were blotted briefly on paper towels then rinsed in sterile distilled water for 1 minute, then blotted dry on paper towels. Leaf disks were excised from leaves with a 0.5 cm^2 or smaller cork borer, depending on the size of the sample leaves; 2) leaf disks from the leaves of 2 or more independent replicate plants were pooled for a single tissue sample and placed in a 1.5-mL microfuge tube with 100 μL sterile distilled water, the amount of leaf tissue per tube was recorded as leaf surface area. Three or more samples were harvested for each time point. […] The number of serial dilutions necessary to get countable colonies were determined for each sample, however dilutions to 10^−7 were usually sufficient for any bacterial strain; 7) The samples were plated on the appropriate medium (e.g., Low salt Luria Bertani) supplemented with the necessary antibiotics to select for the specific inoculated bacterial strain. […]

B1: full-length HopM1: Pst DC3000 type III effector, 712-aa virulence protein (SEQ ID NO:34) (protein)
chain: MISSRIGGAGGVELSRVNQQHDTVPAQTAHPNAVTAGMNPPLTPDQSGSHATESSSAGAARLNVAARHTQLLQAFKAEHGTAPVSGAPMISSRAALLIGSLLQAEPLPFEVMAEKLSPERYQLKQFQGSDLQQRLEKFAQPGQIPDKAEVGQLIKGFAQSVADQLEHFQLMHDASPATVGQHAKADKATLAVSQTALGEYAGRASKAIGEGLSNSIASLDEHISALDLTLQDAEQGNKESLHADRQALVDAKTTLVGLHADFVKSPEAKRLASVAAHTQLDNVVSDLVTARNTVGGWKGAGPIVAAAVPQFLSSMTHLGYVRLSTSDKLRDTIPETSSDANMLKASIIGMVAGIAHETVNSVVKPMFQAALQKTGLNERLNMVPMKAVDTNTVIPDPFELKSEHGELVKKTPEEVAQDKAFVKSERALLNQKKVQGSSTHPVGELMAYSAFGGSQAVRQMLNDVHQINGQTLSARALASGFGGAVSASSQTLLQLKSNYVDPQGRKIPVFTPDRAESDLKKDLLKGMDLREPSVRTTFYSKALSGIQSSALTSALPPVTAQAEGASGTLSAGAILRNMALAATGSVSYLSTLYTNQSVTAEAKALKAAGMGGATPMLDRTETALNNIRHPNRESLPHTFQKSTLSGIPRVAENAYHMGRGALQLPTQMAVDTVRVVDEGVLNAVASAREALKQPTKDDDALRALEEGLLDPR
modifications: 6xHis tag; Pseudomonas syringae pv. tomato str. DC3000
- stability of AtMIN10-HA (AtMIN10-HA): destabilized
- polyubiquitination of AtMIN7 (AtMIN7 [1]): enhanced
- endogenous AtMIN7 protein on immunoblot (AtMIN7 [2]): absent
- destabilization of AtMIN2, AtMIN7 and AtMIN10 [3]: destabilized
- complementation effect on multiplication (Pst DC3000): did not show this effect
